Reference: patent publication US9605266

Molecular target: C-C chemokine receptor type 5 (CCR5) (Homo sapiens) (UniProt P51681)
Assay: flow
Conditions: 2'-F pyrimidines (2'-F-C, 2'-F-U), negative control

Chain of C-C chemokine receptor type 5 (CCR5) (Homo sapiens) (P51681 whole entry): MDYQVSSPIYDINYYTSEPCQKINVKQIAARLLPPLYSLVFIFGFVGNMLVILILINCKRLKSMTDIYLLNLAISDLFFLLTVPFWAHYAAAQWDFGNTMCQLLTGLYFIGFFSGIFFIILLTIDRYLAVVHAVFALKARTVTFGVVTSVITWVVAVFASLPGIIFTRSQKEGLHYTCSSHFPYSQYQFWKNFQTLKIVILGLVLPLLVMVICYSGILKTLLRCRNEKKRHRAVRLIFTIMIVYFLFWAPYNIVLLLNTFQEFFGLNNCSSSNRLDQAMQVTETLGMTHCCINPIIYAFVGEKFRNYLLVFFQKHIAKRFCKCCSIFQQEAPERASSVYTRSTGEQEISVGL

“GGGAGGACGAUGCGGNNNNNNNNNNNNNNNNNNNNCAGACGACUCGCCCGA [0-RNA pool (starting library)]” was tested, and the binding signal (% Cy3-positive cells) (untreated 0.076%) was 0.808 and the binding signal (% Cy3-positive cells) (untreated 0.191%) was 7.63.
